Values belong to the binder of their own block, whether it stands above or below them.
Key:
[1] = biological target: T1, human FGFR4 extracellular domain (FGFR4-ECD) (human, UniProt P22455 22-369); assay: SPR (BIACORE), mAb immobilized on the chip, FGFR4-ECD in solution
T1 construct: extracellular domain; also called hFGFR4-ECD
T1 sequence (looked up): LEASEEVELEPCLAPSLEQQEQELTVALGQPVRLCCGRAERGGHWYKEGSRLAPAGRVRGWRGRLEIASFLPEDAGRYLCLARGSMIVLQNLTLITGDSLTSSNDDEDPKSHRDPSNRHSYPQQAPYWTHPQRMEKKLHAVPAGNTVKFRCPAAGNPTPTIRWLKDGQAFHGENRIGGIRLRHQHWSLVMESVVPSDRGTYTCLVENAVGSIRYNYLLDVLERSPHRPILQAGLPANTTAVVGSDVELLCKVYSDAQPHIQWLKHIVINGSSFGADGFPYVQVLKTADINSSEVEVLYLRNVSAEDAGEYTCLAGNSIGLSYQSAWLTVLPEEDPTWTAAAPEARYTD
Description: (§1) The affinity of two of the FGFR4-specific mAbs was tested using surface plasmon resonance.
(§2) The mAb was immobilized in a CMS chip and the binding of FGFR4 extracellular domain (FGFR4-ECD) was detected by measuring surface plasmon resonance in a BIACORE™ instrument

[2] = biological target: T1, human FGFR4 extracellular domain …; assay: SPR (BIACORE), mAb immobilized on the chip, FGFR4-ECD in solution; 'Observed KD'
Description: as §1, §2

[3] = biological target: T1, human FGFR4 extracellular domain …; assay: SPR (BIACORE), mAb immobilized on the chip, FGFR4-ECD in solution; column head prints 10^4, read as 10^-4 because that agrees with the printed kon and KD
Description: as §1, §2

kon [1]: 1700 M⁻¹ s⁻¹
Kd [2]: 0.11 µM
koff [3]: 0.00018 s⁻¹
B1: 57.1 rabbit anti-FGFR4 mAb (antibody, V domains shown)
VH: QSVKESEGRLVTPGTPLTLTCTVSGFSLSTYAMSWVRQAPEKGLEWIGIIYATAETYYATWARGRFTISKTSTTVDLKITSPATEDTATYFCARLNGDGSGTYAYDIWGPGTLVTVSS
VL: ELVMTQTPSPVSAAVGGTVTINCQASQSISSSYLSWYQQKPGQPPKLLIYKASTRPSGVSSRFKGSGSGTQFTLTISGVQCADAATYYCLYGYYIDSGADNSFGGGTEVVVK

kon [1]: 25000 M⁻¹ s⁻¹
Kd [2]: 0.017 µM
koff [3]: 0.00043 s⁻¹
B2: 29.2 rabbit anti-FGFR4 mAb (antibody, V domains shown)
VH: QSVKESEGRLVTPGTPLTLTCTVSGFSLSSNSVGWVRQAPGKGLEWIGIISSSGNRYYASWAKGRFTISKTSTTVDLKITSPTTEDTATYFCGGDPVSWYGDIWGPGTLVTVSS
VL: ELVLTQTPSSVSAAVGGTVTINCQSSPSLYKNNYLSWYQQKPGQPPKLLIYSASTLASGVPSRFKGSGSGTEYTLTISGVQCDDAATYYCLGGYSLSSDSPRAFGGGTEVVVK

Source: patent US20180318440A1 (US Dept. of Health and Human Services, published 2018)
